Article PMC12549891, “Structural mechanisms of assembly, gating, and calmodulin modulation of human olfactory CNG channel” (Nature Communications, 2025)

B1: human CNGA4 subunit (natural protein)
chain: MSQDTKVKTTESSPPAPSKARKLLPVLDPSGDYYYWWLNTMVFPVMYNLIILVCRACFPDLQHGYLVAWLVLDYTSDLLYLLDMVVRFHTGFLEQGILVVDKGRISSRYVRTWSFFLDLASLMPTDVVYVRLGPHTPTLRLNRFLRAPRLFEAFDRTETRTAYPNAFRIAKLMLYIFVVIHWNSCLYFALSRYLGFGRDAWVYPDPAQPGFERLRRQYLYSFYFSTLILTTVGDTPPPAREEEYLFMVGDFLLAVMGFATIMGSMSSVIYNMNTADAAFYPDHALVKKYMKLQHVNRKLERRVIDWYQHLQINKKMTNEVAILQHLPERLRAEVAVSVHLSTLSRVQIFQNCEASLLEELVLKLQPQTYSPGEYVCRKGDIGQEMYIIREGQLAVVADDGITQYAVLGAGLYFGEISIINIKGNMSGNRRTANIKSLGYSDLFCLSKEDLREVLSEYPQAQTIMEEKGREILLKMNKLDVNAEAAEIALQEATESRLRGLDQQLDDLQTKFARLLAELESSALKIAYRIERLEWQTREWPMPEDLAEADDEGEPEEGTSKDEEGRASQEGPPGPE
notes: CNGA4, human; Expressed from a tri-cistronic construct with P2A peptides between neighbouring genes; remnants of P2A may remain at chain ends (surmise); source: HEK293F, BacMam, tri-cistronic P2A construct, purified within the CNGA2/A4/B1b complex (anti-Flag, Strep-Tactin, SEC); not shown: Flag, N-terminal, kept
B2: human CNGA2 subunit (natural protein)
chain: MTEKTNGVKSSPANNHNHHAPPAIKANGKDDHRTSSRPHSAADDDTSSELQRLADVDAPQQGRSGFRRIVRLVGIIREWANKNFREEEPRPDSFLERFRGPELQTVTTQEGDGKGDKDGEDKGTKKKFELFVLDPAGDWYYCWLFVIAMPVLYNWCLLVARACFSDLQKGYYLVWLVLDYVSDVVYIADLFIRLRTGFLEQGLLVKDTKKLRDNYIHTLQFKLDVASIIPTDLIYFAVDIHSPEVRFNRLLHFARMFEFFDRTETRTNYPNIFRISNLVLYILVIIHWNACIYYAISKSIGFGVDTWVYPNITDPEYGYLAREYIYCLYWSTLTLTTIGETPPPVKDEEYLFVIFDFLIGVLIFATIVGNVGSMISNMNATRAEFQAKIDAVKHYMQFRKVSKGMEAKVIRWFDYLWTNKKTVDEREILKNLPAKLRAEIAINVHLSTLKKVRIFHDCEAGLLVELVLKLRPQVFSPGDYICRKGDIGKEMYIIKEGKLAVVADDGVTQYALLSAGSCFGEISILNIKGSKMGNRRTANIRSLGYSDLFCLSKDDLMEAVTEYPDAKKVLEERGREILMKEGLLDENEVATSMEVDVQEKLGQLETNMETLYTRFGRLLAEYTGAQQKLKQRITVLETKMKQNNEDDYLSDGMNSPELAAADEP
notes: CNGA2, human; Expressed from a tri-cistronic construct with P2A peptides between neighbouring genes; remnants of P2A may remain at chain ends (surmise); Two copies stand in the heterotetramer; also called A2L; A2R; source: HEK293F, BacMam, tri-cistronic P2A construct, purified within the CNGA2/A4/B1b complex (anti-Flag, Strep-Tactin, SEC); not shown: Flag, N-terminal, kept

Legend:
[1] = biological target: T1, human CNGB1b subunit (shorter CNGB1 variant, amino acids 456-1251) (human, UniProt Q14028 456-1251); test: cryo-EM structure; CNGA2/A4/B1b co-expressed with CaM, complex purified with 2 mM CaCl2 in digitonin; apo (no cAMP), closed state; focused refinement around the CLZ region; conditions: both partners purified
T1 construct: CNGB1b, olfactory shorter variant of human CNGB1 lacking the N-terminal GARP domain, amino acids 456-1251 of CNGB1; Expressed from a tri-cistronic construct with P2A peptides between neighbouring genes; remnants of P2A may remain at chain ends (surmise); source: HEK293F, BacMam, tri-cistronic P2A construct, purified within the CNGA2/A4/B1b complex (anti-Flag, Strep-Tactin, SEC); not shown: Flag, …
T1 sequence (Q14028 456-1251, stated change not applied): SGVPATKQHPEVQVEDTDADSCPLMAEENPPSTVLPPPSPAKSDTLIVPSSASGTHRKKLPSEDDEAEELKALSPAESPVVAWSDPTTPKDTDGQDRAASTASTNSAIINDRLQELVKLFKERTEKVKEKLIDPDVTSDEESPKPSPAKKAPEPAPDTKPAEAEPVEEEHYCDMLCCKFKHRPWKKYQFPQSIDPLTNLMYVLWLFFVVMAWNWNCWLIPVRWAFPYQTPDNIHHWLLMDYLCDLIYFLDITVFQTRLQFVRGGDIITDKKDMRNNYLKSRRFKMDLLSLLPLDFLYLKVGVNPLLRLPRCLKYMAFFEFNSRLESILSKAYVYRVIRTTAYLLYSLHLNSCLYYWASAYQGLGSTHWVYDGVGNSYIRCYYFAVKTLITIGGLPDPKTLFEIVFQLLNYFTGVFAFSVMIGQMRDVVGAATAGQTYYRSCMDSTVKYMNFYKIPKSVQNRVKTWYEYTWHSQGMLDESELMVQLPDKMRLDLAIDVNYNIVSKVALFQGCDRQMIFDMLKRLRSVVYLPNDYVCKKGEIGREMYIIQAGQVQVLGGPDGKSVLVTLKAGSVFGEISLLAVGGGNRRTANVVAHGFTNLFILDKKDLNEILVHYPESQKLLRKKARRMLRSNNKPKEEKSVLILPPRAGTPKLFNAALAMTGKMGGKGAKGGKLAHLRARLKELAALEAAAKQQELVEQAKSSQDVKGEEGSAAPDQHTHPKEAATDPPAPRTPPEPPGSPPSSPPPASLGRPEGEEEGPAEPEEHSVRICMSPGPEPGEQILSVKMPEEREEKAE

[2] = biological target: T2, human calmodulin (human, UniProt P0DP23 1-149); test: as above; conditions: both partners purified
T2 construct: calmodulin, human; The purified CaM (800 nM) and the endogenous HEK293 CaM of the patch-clamp recordings are written with this molecule; also called CaM; Ca^2+/CaM; source: HEK293F, BacMam, co-expressed with CNGA2/A4/B1b, co-purified (anti-Flag, Strep-Tactin, SEC); not shown: Strep, C-terminal, kept

[3] = biological target: B2; test: cryo-EM structure; CNGA2/A4/B1b after removal of CaM by EGTA and SEC, incubated with 5 mM cAMP; cAMP-bound open state; conditions: both partners purified
[4] = biological target: the molecule itself; test: cryo-EM structure; CNGA2/A4/B1b co-expressed with CaM, complex purified with 2 mM CaCl2 in digitonin; apo (no cAMP), closed state; focused refinement around the CLZ region

Binder	binding result [1]	binding result [2]	binding result [3]	binding result [4]
B1	binds	binds	binds	–
B2	binds	–	–	binds
